Results: the nanobody polyreactivity screen of Harvey et al. (2022)

Assay: yeast display, Sf9 membrane polyspecificity reagent, FACS + sequencing; frameworks hold sequencing errors
Outline: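 Nanobodies came from a synthetic yeast display library in Saccharomyces cerevisiae BJ5465, induced with galactose for 36–48 hours and stained for 1 hour at 4 °C with 10% biotinylated, detergent-solubilized Sf9 membrane reagent. Cells were enriched on streptavidin microbeads and then FACS-sorted, with low and high (top ~1%) gates set on anti-HA fluorescence for expression and streptavidin fluorescence for reagent binding. Each polyreactivity label reflects the gate a clone came from. Genes were amplified by colony PCR, sequenced by MiSeq 2 × 250 and filtered by CDR length.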

Sequence | polyreactivity (PSR sort gate)
QVQLVESGGGLVQAGGSLRLSCAASGSIFSVYAMGWYRQAPGKERELVAAISTRGGSTYYADSVKGRFTISRDNAKNTVYLQMNSLKPEDTAVYYCAKRWPQYTDYKPMYYWGLGTQVTVSS | high polyreactivity
QVQLVESGGGLVQAGGSLRLSCAASGRIFERNAMGWYRQAPGKERELVARITSGGGTYYADSVKGRFTISRDNAKNSVYLQMNSLKPEDTAVYYCAVQYLYRKYRRYDYWGQGTQVTVSS | high polyreactivity
QVQLVESGGGLVQAGGSLRLSCAASGRILYSYAMGWYRQAPGKEREFVAAIRRSGGSTYYADSVKGRFTISRDNAKNTVYLQMNSLKPEDTAVYYCAAGRRYSGSYDYWGQGTQVTVSS | high polyreactivity
QVQLVESGGGLVQAGGSLRLSCAASGSTLATYTMGWYRLAPGTVRELVGAISFGGSTYYADSVKGRFTISRDNAKNTVYLQMNSLKPVDTAVYYCAVDGDSYWGAYYYSDGYWGQGTQVTVSS | low polyreactivity
QVQLVESGGGLVQAGGSLRLSCAASGSIFRVYAMGWYRQAPGKERELVAAISSIVGSTYYADSVKGRFTISRDNAKNTVYLQMNSLKPADTAVYYCNKDGTWPRTGSEYDYWGQGTQVTVSS | low polyreactivity
QVQLVETGGGLVQAGGSLRLSCAASGRTFHYNVMGWYRQAPGKERELVAAITNTGGSTYYADSVKGRFTISRDNAKNTVYLQMNSLKPEDTAVYYCAAVETLPFDWYYWRYDYWGQGTQVTVSS | low polyreactivity
QVQLVESGGGLVQAGGSLRLSCAASGSTFWYYAMGWYRQAPGKERELVAAISRGGNTYYADSVKGRFTISRDNAKNTVYLQMNSLKPEDTAVYYCAARVHYWYPSTGHHYWGQGTQVTVSS | high polyreactivity
QVQLVESGGGLVQAGGSLRLSCAASGFTFYYYAMGWYRQEPGKERELVAAISSRGGSTYYADSVKGRFTISRDNAKNTVYLQMNSLKREDTPVYYCAAVYKYGGATYRSTSYYYWGQGTQVTVSS | high polyreactivity
QVQLVESGGGLVQAGGSLRLSCAASGNIFANAMGWYRQAPGKERELVAAISRSGGSTYYADSVKGRFTISRDNAKNTVYLQMNSLKPEDTAVYYCAARTTRGPTFGYWGQGTQVTVSS | high polyreactivity
QVQLVESGGGLVQAGGSLRLSCAASGFIFAWYAMGWYRQAPGKERELVADITSGGDTSYADSVKGRFTISRDNAKNTVYLQMNSLKPEDTAVYYCARDVYIWYGYGYFPEYEYWGQGTQVTVSS | low polyreactivity
QVQLVESGGGLVQAGGSLRLSCAASGSIFNVYGMGWYRQAPGKERELVAAISKSGTSTSYADSVKGRFTISRDNAKNTVYLQMNSLKPEDTAVYYRNAGYRTWWGKKYDYWGQGTQVTVSS | low polyreactivity
QVQLQESGGGMVQAGGSLRLSSAASGYISWADSMGWYRQAPGKERELVAGIGYGSTTYYADSVKGRFTISRDNAKNTAYLQMNSLKPEDTAVYYCSVGWYRDTAYKYWGQGTQVTVRS | low polyreactivity
QVQLVESGGGLVQAGGSLRLSCAASGRTFHTNAMGWYRQAPGKERELVAAITRSGSGTYYADSVKGRFTISRDNAKNTVYLQMNSLKPEDTAVYYCNAVRRGEYDYWGQGTQVTVSS | high polyreactivity
QVQLVESGGGLVQAGGSLRLSCAASGIIFSRYAMGWYRPAPGKVRELVASITGRVGSTYYADSVKGPFTISRDNAKNTVYLQMNRLNPEDTAVYYCAADYVYKFDYWGHGTQVTVSS | low polyreactivity
QVQLVESGGGLVQAGGSHRLSCAASGRTFYSYPMGWYRQAPGKEREIVAAIHWSGTTTYADSVKGRFTISRDNAKNTVYLEMNSLKPDATAVYYCAADRVSYIGAGWFDYWGQGTQVTVSS | high polyreactivity
QVQLVESGGGLVRAGGSLRLSWAASGFTFTSYAMGWYRQAPGKERELVAAITVTGGRTYYADSVKGRFTISRDNAKNTVYLQMNSLKPEDTAVYYCATVFSLSSPYWKHYYWGQGTQVTVSS | high polyreactivity
QVQLVESGGGLVQAGGSLRLSCAASGITFYRYAMGWYRQAPGKERELVATITSGGSTYYADSVKGRFTISRDNAKNTVYLQMNSLKPEDTAVYYCAAESVWTWYYTTAGMDYWGQGTQVTVSS | high polyreactivity
QVQLVESGGGLVQAGGSLRLSCAASGRIQYNAMGWYRQAPGKEREFVAAISWSGGTTYYADSVKGRFTISRDNAKNTVYLQMNRLKPEDTAVYYCATPYTHWGQGTQVTVSS | high polyreactivity
QVQLVESGGGLVQAGGSLRLSCAASGSTFRHYAMGWYRQAPGKERELVAVISWGGTSTYYADSVKGRFTISRDNAKNTVYLQMKSLKPEDTAVYYCNKAYFPIFKGYEMYYWGQGTQVTVSS | low polyreactivity
QVQLVESGGGLVHAGGSLRLSCAASGRIFYYNAMGWYRQAPGKEREFVAAIRSSGGSTYYSDSVKGRFTISRDNAKNTVYLQMNSLKPEDTAVYYCAADFYGLGDYGVDYWGQGTQVTVSS | low polyreactivity
QVQLQESGAGLVQAGVSLRLSCAASGYISTFSSEMGWYRQAPGKDRELVASIAPGCTTSYADSVKGRFTISRDKAKNTVFLQMNSLKPEDTAVYYCAVDYTVPASFGYWGQGTQVTVSS | high polyreactivity

Sequence | polyreactivity (PSR sort gate)
QVQLVESGGGLVQAGGSLRLSCAASGRTFRSYAMGWYRQAPGKERELVAAISDGGSTNYADSVKGRFTISRDNAKNTVYLQMNSLKPEDTAVYYCAAEIFFAVFRFYYWGQGTQVTVSS | low polyreactivity
QVQLVESGVGLVQAGGSLRLICAATGYTFKRTAMRWSRQAPGKEREFVAAINIRGSSTYYADSVKGRFTISRDNPKNTVYLQMISLKPEDTAVYYCNAVTRYGYYWGEGTQVTVSS | high polyreactivity
QVQLVESGGGLVQAGGSLRLSCAASGLTFGGNAMGWYRPAPGKERELVAAISWSDHTTDYADSVKGRFTISRDKSKNSVYFQMKRLKPEDTAVYYCAARLPFEHVDYWGQGTQVTVSS | low polyreactivity
QVQLVESGGGLVQAGGSLRLSCAASGSTFSLYAMGWYRQAPGKERELVADINSGGGTYYADSVKGRFTISRDNAKNTVYLQMNSLKPEDTAVYYCTAASSWSYFWYDYWGQGTQVTVSS | high polyreactivity
QVHLVESGGGLVQAGGSLRLSCAASGSIFVSNAMGWYRQAPGKERELVAAIRGVDSTYYADSVKGRFTISRDNAKNTVYLQMNSLKPEDTAVYYCATPGPGYTRYYYWGQGTQVTVSS | high polyreactivity
QVQLVESGGGLVQAGGSLRLSCAASGSNFLAYAMGWYRQAPGKERELVADISWGGGSTSYADSVKGRFTISRDNAKNTVYLQMNSLKPEDTAVYYCNKGSFSKRRDYYWGQGTQVTVSS | high polyreactivity
QVQLVESGGGLVQAGGSLRLSCAASGSTFGWYAMGWYRQAPGKERELVAAISTSGNTYYADSVKGRFTISRDNAKNTVYLHMNRLKPEDTAVSYCAKYVNPDHDYWGQGTQVTVSS | low polyreactivity
QVQLVESGGGLVQAGGSLRLICGASGSTFQVNAMGWYRQGPGKERELVASISGGSSTNYADSVKGRFTISRDNAKNTVYLQMNSLKPEDTAVYYCAAYYLSGLRVAYDYWGQGTQVTVSS | low polyreactivity
QVQLVESGGGLVQAGGSLRLSCAASGRIFYSNAMGWYRQAPGKERELVAAITRSGGGTYYADSVKGRFTISRDNAKNTVYLQMNSLKPEDTAVYYCARPAFFRSLSTSDDYWGQGTQVTVSS | high polyreactivity
QVQLVESGGGLVQAGGSLRLSCAASGSILAINAMGWYRQAPGKERELVAAINWSRGSTFYADSVKGRFTISRDNAKNTVYLQMNSLKPEDTAVYYCNVEWTDSERGDYYVDYDYWGQGTQVTVSS | low polyreactivity
QVQLVESRGGLVQAGGSLRLSSAASAFIFGSNAMGWYRQAPGKERELVAAISRSGGSTYYADSVKGRFTISRDNAKKTVYLQMNSLKPEDTAVYYCNVDLWPFVYSWWSYDYWGPGTQVTVSS | high polyreactivity
QVQLVESGGGLVQAGGSLRLTCAASGSIFGDYAMGWYRQAPGKEREFVAGITRRGGRTYYADSVKGRFTISRDNAKNTVYLQMNSLKPEDTAVYYCNAVYSSSLRSKYDYWGQGTQVTVSS | high polyreactivity
QVQLVESGGGLVQAGGSLRLSCAASGYIFGWNAMGWYRQAPGKERELVAAISSSGGNTYYADSVKGRFTISRDNAKNTVYLQMNSLKPEDTAVYYCARSYPYRYDYWGQGTQVTVSS | low polyreactivity
QVQLVESGGGLVQAGGSLRLSCAASGSTFGLYGMGWYRQAPGKERELVAAITYSGGGTYYADSVKGRFTISRDNAKNTVYLQMNSLKPEDTAVYYCAAEYYSSITGWYYYWGQGTLVTVSS | low polyreactivity
QVQLVESGGGLVQAGGSLRLSCAASGLIFYYYAMGGYRQAPGTQRELVACITGGDSTNYADSVKGRFTISRDNAKNTVYLQMNSLKPEDTAVYYCAAEFYGSSFGYRTYDYYYWGQGTEVTVSS | low polyreactivity
QVQLEESGGGLVQAGGSLRLSCAASGFTLEYYAMGWYRKAPGKERELVAVITESDGNTYYADSVKGRFTISRDNAKNTVYLQMNSLKPEDTAVYYCAAEYRDGYRFSYDYWGQGTQVTVSS | low polyreactivity
QVQLVESGGGLVQAGGSLRLSCAASGFIFGWNAMGWYRQAPGKERELVAGISRGGRTYYADSVKGRFTISRDNAKNTVYLQMNSLKPEDTAVYYCNKRLYSSSAVDAYGYWGQGTQVTVSS | high polyreactivity
QVQLVESGGGLVQAGGSLRLSCAASGFTFKINGKGWYRQAPGKEREFVATIRTSTGRTYYADSVKGRFTISRDNAKNTVYLQMNSLKPEDTAVYYCATDYLFERLLQEMDYWGQGTQVTVSS | high polyreactivity
QVQLVESWGVLVQAGGSLRLSCAASGSIIVNYDMGWYRQARGKERELVAAITWGGGRTYYADSVKRRFTISRDNAKNSVYLQMNSLKPEDTAVYYCAADFSWVINPYEYCGQGTQVTVSS | low polyreactivity
QVQLVESGGGLVQAGGSLRLTCAASGSIFLYYAMGWYRQAPGKERELVAGINRVGSTNYADSVKGRFTISRDNAKNTVNLQMNSLKPEDTAVYYCNKRATRSRRRGYWGQGTQVTVSS | low polyreactivity
